Laboratory results as given in paper PMC12207588.

Test system: P02768
Experiment: SEC; BioSep SEC-s2000 column, PBS pH 7.4, 1 mL/min; share of monomer, dimer and trimer from the UV trace at 280 nm

Substance	percent HSA dimer (SEC UV trace at 280 nm)	percent dimer and trimer together (SEC UV trace at 280 nm)	percent HSA trimer (SEC UV trace at 280 nm)
Recombinant human serum albumin, lyophilized, A9731 (HSA4)	10.2% (7.2 min)	–	–
Human serum albumin, lyophilized powder from human serum, A3782 (HSA3)	3.4% (7.3 min)	–	–
Human serum albumin, lyophilized powder from human serum, A1693 (HSA2)	10.7% (6.7 min)	–	–
DFO*malHSA (HSA1 conjugated with DFO*maleimide at Cys34)	–	the other 5% of the UV trace corresponds to the albumin dimer and trimer	–
Human serum albumin, pharmaceutical solution Albunorm (HSA1)	1.1% (7.1 min)	–	2.9% (5.6 min)
